The target in the assay is T1, p65-N2-His (amino acids 1-190) (UniProt Q04206 1-190).
T1 construct: NF-κB p65, N-terminal 190 residues, subcloned into pET28a; also called p65-N2-6 × His; 6 × His-tagged p65-N2 fragment; source: E. coli, purified
The experiment in a line: pull-down; in vitro: purified GST-fused MANF (or truncate, or GST) pre-bound to glutathione-agarose; purified p65-N2-6xHis loaded in 50 mM Tris-HCl pH 7.5, 100 mM NaCl, 0.1% Triton X-100, 1 hr at 4°C; eluted with 500 mM NaCl; blot with anti-His. To be noted: both partners purified.

T1 sequence (Q04206 1-190): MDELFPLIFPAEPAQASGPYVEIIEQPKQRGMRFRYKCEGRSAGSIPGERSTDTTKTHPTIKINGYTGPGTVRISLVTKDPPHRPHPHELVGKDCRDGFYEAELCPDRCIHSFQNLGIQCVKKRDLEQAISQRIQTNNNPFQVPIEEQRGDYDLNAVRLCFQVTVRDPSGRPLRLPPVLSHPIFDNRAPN

B1: MANF-D3-GST (C-terminal SAP-like domain, amino acids 96-182) (domain or fragment, human, UniProt P55145 96-182, looked up)
chain: LAHHIPVEKICEKLKKKDSQICELKYDKQIDLSTVDLKKLRVKELKKILDDWGETCKGCAEKSDYIRKINELMPKYAPKAASARTDL
As for B1, the binding result is listed as “binds”.
